Here are results for one molecule from paper PMC7729032, “Interaction interface in the C-terminal parts of centriole proteins Sas6 and Ana2” (Open Biology, 2020).

The target of this test is T1, MBP-Sas6 wild-type (Drosophila, UniProt Q9VAC8 1-472).
T1 construct: Sas6, Drosophila, wild type; MBP from destination vector pKM596 (Gateway); No cleavage of MBP is described; also called Sas6-wt; source: E. coli Rosetta(DE3); in lysate (pull-down); purified on amylose resin and SEC (SEC, HDX-MS)
T1 sequence (looked up): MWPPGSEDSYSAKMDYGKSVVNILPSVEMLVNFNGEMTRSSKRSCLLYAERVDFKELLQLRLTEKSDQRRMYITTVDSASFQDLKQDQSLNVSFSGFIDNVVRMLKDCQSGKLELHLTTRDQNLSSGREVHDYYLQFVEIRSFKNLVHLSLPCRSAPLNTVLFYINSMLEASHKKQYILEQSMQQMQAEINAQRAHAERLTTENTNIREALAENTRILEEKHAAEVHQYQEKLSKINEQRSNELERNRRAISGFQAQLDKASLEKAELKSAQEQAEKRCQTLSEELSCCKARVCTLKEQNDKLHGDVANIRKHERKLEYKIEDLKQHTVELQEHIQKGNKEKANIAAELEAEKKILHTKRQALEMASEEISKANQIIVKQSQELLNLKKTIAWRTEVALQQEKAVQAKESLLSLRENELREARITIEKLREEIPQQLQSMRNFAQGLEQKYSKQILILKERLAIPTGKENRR
Put plainly: SEC; MBP-Ana2-4D mixed with MBP-Sas6, at least 1 h on ice, Superdex 200 10/300; 20 mM Tris–HCl pH 7.5, 150 mM NaCl, 1 mM DTT, 4°C. The settings on record: both partners purified.

B1: MBP-Ana2-4D (natural protein, Drosophila, UniProt Q9XZ31 1-420, looked up)
chain: MFVPETEDMLPRLAPRPSAAVPMGHTNEIIGPTVPEVSILFGQPPQDPQMQPQQPNHAHQESSPRAAPTFASWKKQMLPRVNFSPILATELGPRTAPSSNSPCSSKEYQVMPRDRNYASDAQQTTNHMNCNAGGYNAEPKQQAYQSRRLSSSSNADVLTICAGTQTDPFNPSPPRKSLPQVVYSDIDVSNLANKSDLAALVSLVESVRHEQQQLRNLCEMILEQQQRAKPEAISKASSTTGTQCDILTTNQAGRRLSPIMQDYIAEEEEPLPPPQARVIPQFPSPRPHPPIAQSTGYRANTPQAKRIPQLAKPNTEKDMVMNELALKYLRQPVDELMKDMRLGASPKSPNPEPLRPIDNIGHAQDPNDIDNADYKYLKKYRLLPEEQLEPVCPQSPMAATAPSPHIQLDLENIRNQPKLL
notes: Ana2, Drosophila; STAN motif serines 318, 365, 370 and 373 substituted by aspartic acid; MBP from destination vector pKM596; As prey against Gorab bait the MBP tag follows from the general methods of the pull-down; also called Ana2-4D-FL; source: E. coli Rosetta(DE3); purified on amylose resin and SEC (SEC, HDX-MS); in lysate (pull-down prey)
On to B1, for which the binding result was “binds”.
